US20160053258
Residue numbers refer to the chain shown, from its start.

Key:
[1] = molecular target: T1, 6×HIS-LIN28A (1-124), Q9H9Z2
T1 chain: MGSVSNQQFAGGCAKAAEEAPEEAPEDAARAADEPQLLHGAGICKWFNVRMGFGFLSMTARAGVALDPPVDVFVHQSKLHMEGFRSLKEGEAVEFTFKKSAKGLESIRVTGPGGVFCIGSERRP

[2] = molecular target: T2, 6×HIS-LIN28A (125-156), Q9H9Z2
T2 chain: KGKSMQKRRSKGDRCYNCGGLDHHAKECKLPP

[3] = molecular target: T3, 6×HIS-LIN28A (125-209), Q9H9Z2
T3 chain: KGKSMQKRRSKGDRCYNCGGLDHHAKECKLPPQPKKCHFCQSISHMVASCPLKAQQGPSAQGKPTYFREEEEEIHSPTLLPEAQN

[4] = molecular target: T4, 6×HIS-LIN28A (157-209), Q9H9Z2
T4 chain: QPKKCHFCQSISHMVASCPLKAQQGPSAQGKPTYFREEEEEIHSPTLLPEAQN

[5] = molecular target: T5, 6×HIS-LIN28A-K135R, Q9H9Z2
T5 chain: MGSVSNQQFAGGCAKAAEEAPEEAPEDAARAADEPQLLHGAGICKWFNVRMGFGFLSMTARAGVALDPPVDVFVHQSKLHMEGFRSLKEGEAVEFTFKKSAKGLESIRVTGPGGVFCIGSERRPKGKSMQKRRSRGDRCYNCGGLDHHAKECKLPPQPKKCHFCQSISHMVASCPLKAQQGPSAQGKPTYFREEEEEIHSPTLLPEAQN

[6] = molecular target: T6, 6×HIS-labeled human LIN28A (full-length), Q9H9Z2
T6 chain: T5 chain with R135K

[7] = molecular target: T7, full-length 6×HIS-LIN28B, Q6ZN17
T7 chain: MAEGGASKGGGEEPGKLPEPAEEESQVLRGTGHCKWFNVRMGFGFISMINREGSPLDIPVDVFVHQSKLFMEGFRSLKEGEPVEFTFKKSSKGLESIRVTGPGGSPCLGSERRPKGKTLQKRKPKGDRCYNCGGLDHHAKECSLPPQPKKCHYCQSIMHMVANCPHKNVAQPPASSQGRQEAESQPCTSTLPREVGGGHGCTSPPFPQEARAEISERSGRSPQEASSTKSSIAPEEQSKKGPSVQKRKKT

B1: recombinant full-length SET7/9 expressed in bacteria (protein)
chain: MDSDDEMVEEAVEGHLDDDGLPHGFCTVTYSSTDRFEGNFVHGEKNGRGKFFFFDGSTLEGYYVDDALQGQGVYTYEDGGVLQGTYVDGELNGPAQEYDTDGRLIFKGQYKDNIRHGVCWIYYPDGGSLVGEVNEDGEMTGEKIAYVYPDERTALYGKFIDGEMIEGKLATLMSTEEGRPHFELMPGNSVYHFDKSTSSCISTNALLPDPYESERVYVAESLISSAGEGLFSKVAVGPNTVMSFYNGVRITHQEVDSRDWALNGNTLSLDEETVIDVPEPYNHVSKYCASLGHKANHSFTPNCIYDMFVHPRFGPIKCIRTLRAVEADEELTVAYGYDHSPPGKSGPEAPEWYQVELKAFQATQQK
[1]
  methylation (in vitro methyl transferase assay): LIN28A (1-124) and (157-209) without lysine 135 were not methylated
[2]
  methylation (in vitro methyl transferase assay): only LIN28A (125-209) and (125-156) having lysine 135 among 4 fragments were methylated by SET7/9
[3]
  methylation (in vitro methyl transferase assay): only LIN28A (125-209) and (125-156) having lysine 135 among 4 fragments were methylated by SET7/9
[4]
  methylation (in vitro methyl transferase assay): LIN28A (1-124) and (157-209) without lysine 135 were not methylated
[5]
  methylation (in vitro methyl transferase assay): a methylation reaction by SET7/9 was completely removed in K135 mutant
[6]
  enzyme activity (in vitro methyltransferase assay with [3H] SAM): all HMTases except for SET7/9 did not show enzyme activity with respect to LIN28A
  methylation (in vitro methyltransferase assay with [3H] SAM): LIN28A was methylated by SET7/9 in vitro
[7]
  methylation (in vitro methyl transferase analysis): LIN28B was not methylated by SET7/9
